Source: paper PMC5309722, “A substrate-bound structure of cyanobacterial biliverdin reductase identifies stacked substrates as critical for activity” (Nature Communications, 2017)
Changes are numbered by the printed parent chain. Names may count otherwise.

Key:
[1] = target: T1, Syn BVR (Synechocystis sp. PCC 6803, UniProt P72782); assay: X-ray crystal structure, soaked crystal, […] Å; assay type: binding; conditions: 10 mM NADP+ soak; no biliverdin; cleft between the two domains
T1 construct: gene bvdR; full length, 328 residues; N-terminal His6 tag (pET15b), E. coli C41(DE3); tag cut with thrombin for crystals
T1 sequence (P72782 entry or part of it): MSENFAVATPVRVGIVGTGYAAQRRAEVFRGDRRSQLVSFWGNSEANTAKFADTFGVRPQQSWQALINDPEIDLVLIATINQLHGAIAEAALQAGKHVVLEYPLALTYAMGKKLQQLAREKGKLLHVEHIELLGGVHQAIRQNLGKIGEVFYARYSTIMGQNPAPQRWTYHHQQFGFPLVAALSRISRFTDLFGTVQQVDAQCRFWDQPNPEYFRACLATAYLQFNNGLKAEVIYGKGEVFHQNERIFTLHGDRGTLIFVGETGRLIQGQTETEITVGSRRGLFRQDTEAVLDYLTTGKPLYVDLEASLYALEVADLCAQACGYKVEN

[2] = target: T2, rat BVR (Rattus norvegicus, UniProt P46844); assay: optical titration, difference absorption; assay type: binding; conditions: 5 mM NADP+, 200 mM Tris-HCl pH 8.75, 28 °C; two biliverdins bound
T2 construct: gene Blvra; C-terminal His tag (pET21a-rat bvr), E. coli BL21(DE3)
T2 sequence (P46844 1-295 limits assumed): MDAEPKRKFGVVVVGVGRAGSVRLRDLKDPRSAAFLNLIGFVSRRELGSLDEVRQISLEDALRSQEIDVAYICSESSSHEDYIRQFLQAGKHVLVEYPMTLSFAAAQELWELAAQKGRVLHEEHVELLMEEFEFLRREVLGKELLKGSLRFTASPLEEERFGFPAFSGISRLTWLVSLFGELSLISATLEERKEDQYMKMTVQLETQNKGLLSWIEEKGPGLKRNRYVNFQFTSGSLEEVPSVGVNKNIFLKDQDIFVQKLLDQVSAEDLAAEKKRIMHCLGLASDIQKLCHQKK

[3] = target: T1, Syn BVR; assay: X-ray crystal structure, co-crystal, […] Å; also optical titration; assay type: binding; conditions: ternary complex with NADP+; two stacked biliverdins (proximal and distal) in active site
[4] = target: T3, human BVR (Homo sapiens, UniProt P53004); assay: optical titration, difference absorption; assay type: binding; conditions: 5 mM NADP+, 200 mM Tris-HCl pH 8.75, 28 °C; two biliverdins bound
T3 construct: gene BLVRA; C-terminal His tag (pET21a(+)), codon-optimized synthetic gene, E. coli BL21(DE3)
T3 sequence (P53004 1-296 limits assumed): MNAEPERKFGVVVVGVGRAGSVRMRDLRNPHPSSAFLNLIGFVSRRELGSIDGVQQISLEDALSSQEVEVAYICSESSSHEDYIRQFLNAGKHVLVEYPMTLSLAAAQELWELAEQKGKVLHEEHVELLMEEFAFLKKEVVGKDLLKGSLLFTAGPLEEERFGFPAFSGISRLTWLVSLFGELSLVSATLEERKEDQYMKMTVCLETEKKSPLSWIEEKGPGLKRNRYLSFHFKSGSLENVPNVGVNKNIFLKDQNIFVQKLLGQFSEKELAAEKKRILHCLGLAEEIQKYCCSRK

[5] = target: T1, Syn BVR; assay: reduction of biliverdin in crystal and solution; assay type: biochemical; conditions: biliverdin as co-substrate; crystallization solution
[6] = substrate: C=CC1=C(C)/C(=C/c2[nH]c(/C=C3N=C(/C=C4\NC(=O)C(C)=C4C=C)C(C)=C\3CCC(=O)O)c(CCC(=O)O)c2C)NC1=O; assay: steady-state kinetics, A450 bilirubin formation; assay type: biochemical, Rattus norvegicus; conditions: 100 μM NADPH, 100 mM Tris-HCl pH 8.75
Excerpt: steady-state kinetics, A450 bilirubin formation on rat BVR

[7] = substrate: C=CC1=C(C)/C(=C/c2[nH]c(/C=C3N=C(/C=C4\NC(=O)C(C)=C4C=C)C(C)=C\3CCC(=O)O)c(CCC(=O)O)c2C)NC1=O; assay: steady-state kinetics, A450 bilirubin formation; assay type: biochemical, Homo sapiens; conditions: 100 μM NADPH, 100 mM Tris-HCl pH 8.75
Excerpt: steady-state kinetics, A450 bilirubin formation on human BVR

[8] = substrate: C=CC1=C(C)/C(=C/c2[nH]c(/C=C3N=C(/C=C4\NC(=O)C(C)=C4C=C)C(C)=C\3CCC(=O)O)c(CCC(=O)O)c2C)NC1=O; assay: steady-state kinetics, A450 bilirubin formation; assay type: biochemical, Synechocystis sp. PCC 6803; conditions: 100 μM NADPH, 100 mM citrate pH 5.75
Excerpt: steady-state kinetics, A450 bilirubin formation on Syn BVR

With `NC(=O)c1ccc[n+]([C@@H]2O[C@H](COP(=O)(O)OP(=O)(O)OC[C@H]3O[C@@H](n4cnc5c(N)ncnc54)[C@H](OP(=O)(O)O)[C@@H]3O)[C@@H](O)[C@H]2O)c1` [NADP^+] the “X-ray crystal structure, soaked crystal, 2.7 Å” value [1] was “NADP^+ binds in the cleft between the two domains”.

In the case of `C=CC1=C(C)/C(=C/c2[nH]c(/C=C3N=C(/C=C4\NC(=O)C(C)=C4C=C)C(C)=C\3CCC(=O)O)c(CCC(=O)O)c2C)NC1=O` [biliverdin IXα], the “optical titration, difference absorption” value [2] is reported as “two BV molecules bound in both human and rat BVRs”, the “X-ray crystal structure, co-crystal, 2.6 Å; also optical titration” value [3] is reported as “two BV molecules are bound to the catalytic cleft between the two domains” and the “optical titration, difference absorption” value [4] is reported as “two BV molecules bound in both human and rat BVRs”.

For `NC(=O)C1=CN([C@@H]2O[C@H](COP(=O)(O)OP(=O)(O)OC[C@H]3O[C@@H](n4cnc5c(N)ncnc54)[C@H](OP(=O)(O)O)[C@@H]3O)[C@@H](O)[C@H]2O)C=CC1` [NADPH], the “reduction of biliverdin in crystal and solution” value [5] was “BV could be rapidly (as in the mixing time) reduced to BR by addition of NADPH”.

B1: rat BVR (Rattus norvegicus) (protein)
chain: T2 sequence (P46844 1-295 limits assumed)
notes: C-terminal His tag (pET21a-rat bvr), E. coli BL21(DE3)
For B1, the Km [6] was 4.6 ± 1.1 µM, the kcat [6] was 69.3 ± 8.5 s⁻¹ and the kcat/Km [6] was 1.51e+07 M⁻¹ s⁻¹.

B2: rat BVR (Rattus norvegicus; R171E) (protein)
chain: T2 sequence (P46844 1-295 limits assumed) with R171E
notes: as for B1
Work on B2 yielded a Km [6] of 45.7 ± 15.4 µM, a kcat [6] of 0.7 ± 0.2 s⁻¹ and a kcat/Km [6] of 20000 M⁻¹ s⁻¹.

B3: rat BVR (Rattus norvegicus; R171A) (protein)
chain: T2 sequence (P46844 1-295 limits assumed) with R171A
notes: as for B1
B3 showed a Km [6] of 24.4 ± 1.5 µM, a kcat [6] of 6 ± 0.2 s⁻¹ and a kcat/Km [6] of 200000 M⁻¹ s⁻¹.

B4: rat BVR (Rattus norvegicus; Y97F) (protein)
chain: T2 sequence (P46844 1-295 limits assumed) with Y97F
notes: as for B1
With B4 the Km [6] was 11.7 ± 1.0 µM, the kcat [6] was 13.6 ± 0.6 s⁻¹ and the kcat/Km [6] was 1.2e+06 M⁻¹ s⁻¹.

B5: human BVR (Homo sapiens) (protein)
chain: T3 sequence (P53004 1-296 limits assumed)
notes: C-terminal His tag (pET21a(+)), codon-optimized synthetic gene, E. coli BL21(DE3)
B5 gave a Km [7] of 20.7 ± 10.1 µM, a kcat [7] of 94.8 ± 31.4 s⁻¹ and a kcat/Km [7] of 4.6e+06 M⁻¹ s⁻¹.

B6: human BVR (Homo sapiens; Y98F) (protein)
chain: T3 sequence (P53004 1-296 limits assumed) with Y98F
notes: as for B5
B6 showed a Km [7] of 3.8 ± 0.3 µM, a kcat [7] of 16.8 ± 0.5 s⁻¹ and a kcat/Km [7] of 4.4e+06 M⁻¹ s⁻¹.

B7: human BVR (Homo sapiens; R172A) (protein)
chain: T3 sequence (P53004 1-296 limits assumed) with R172A
notes: as for B5
B7 showed a Km [7] of 87.7 ± 35.7 µM, a kcat [7] of 17.9 ± 6.3 s⁻¹ and a kcat/Km [7] of 200000 M⁻¹ s⁻¹.

B8: Syn BVR (Synechocystis sp. PCC 6803 substr. Kazusa; R246A) (protein)
chain: MSENFAVATPVRVGIVGTGYAAQRRAEVFRGDRRSQLVSFWGNSEANTAKFADTFGVRPQQSWQALINDPEIDLVLIATINQLHGAIAEAALQAGKHVVLEYPLALTYAMGKKLQQLAREKGKLLHVEHIELLGGVHQAIRQNLGKIGEVFYARYSTIMGQNPAPQRWTYHHQQFGFPLVAALSRISRFTDLFGTVQQVDAQCRFWDQPNPEYFRACLATAYLQFNNGLKAEVIYGKGEVFHQNEAIFTLHGDRGTLIFVGETGRLIQGQTETEITVGSRRGLFRQDTEAVLDYLTTGKPLYVDLEASLYALEVADLCAQACGYKVEN
notes: full length, 328 residues; N-terminal His6 tag (pET15b), E. coli C41(DE3); tag cut with thrombin for crystals
B8 was tested, and the Km [8] was 5.1 ± 0.8 µM, the kcat [8] was 11 ± 0.6 s⁻¹ and the kcat/Km [8] was 2.2e+06 M⁻¹ s⁻¹.

B9: Syn BVR (Synechocystis sp. PCC 6803 substr. Kazusa; T169A) (protein)
chain: B8 chain with T169A, A246R
notes: as for B8
B9 was tested, and the Km [8] was 3.4 ± 0.5 µM, the kcat [8] was 13.1 ± 0.5 s⁻¹ and the kcat/Km [8] was 3.9e+06 M⁻¹ s⁻¹.

B10: Syn BVR (Synechocystis sp. PCC 6803 substr. Kazusa) (protein)
chain: B8 chain with A246R
notes: as for B8
Molecule B10 has a Km [8] of 1.8 ± 0.3 µM, a kcat [8] of 7.1 ± 0.2 s⁻¹ and a kcat/Km [8] of 3.9e+06 M⁻¹ s⁻¹.

B11: Syn BVR (Synechocystis sp. PCC 6803 substr. Kazusa; R185K) (protein)
chain: B8 chain with R185K, A246R
notes: as for B8
B11 was tested, and the Km [8] was 12.6 ± 1.5 µM, the kcat [8] was 0.9 ± 0.05 s⁻¹ and the kcat/Km [8] was 70000 M⁻¹ s⁻¹.

B12: Syn BVR (Synechocystis sp. PCC 6803 substr. Kazusa; Y102F) (protein)
chain: B8 chain with Y102F, A246R
notes: as for B8
In the case of B12, the Km [8] is reported as 4.0 ± 0.3 µM, the kcat [8] is reported as 2.7 ± 0.07 s⁻¹ and the kcat/Km [8] is reported as 700000 M⁻¹ s⁻¹.

B13: Syn BVR (Synechocystis sp. PCC 6803 substr. Kazusa; R185A) (protein)
chain: B8 chain with R185A, A246R
notes: as for B8
B13 gave a Km [8] of 6.9 ± 0.6 µM, a kcat [8] of 0.7 ± 0.02 s⁻¹ and a kcat/Km [8] of 100000 M⁻¹ s⁻¹.
